Test results reported in publication doi:10.1101/2022.10.23.513379 (bioRxiv, 2022).

B1: 80 Fab (Fab, V domains shown)
VH: QVQLVQSGAEVKKPGSSVKVSCKASGGTFNRYAFSWVRQAPGQGLEWMGGIIPIFGTANYAQKFQGRVTITADESTSTAYMELSSLRSEDTAVYYCARSTRELPEVVDWYFDLWGRGTLVTVSS
VL: not shown
B2: 80 MB (mono-specific Multabody of specificity 80) (complex)
VH: B1 VH
VL: not shown
B3: 80 IgG (antibody, V domains shown)
VH: B1 VH
VL: not shown
B4: 2-7 MB (mono-specific Multabody of specificity 2-7) (complex)
VH: QITLKESGPTLVKPTQTLTLTCTFSGFSLSTSGVGVGWIRQPPGKALEWLALIYWDDDKRYSPSLKSRLTITKDTSKNQVVLTMTNMDPVDTATYYCAHHKIERIFDYWGQGTLVTVSS
VL: SALAQPASVSGSPGQSITISCTGTSSDVGAYNYVSWYQQHPGKAPKLMIYDVSKRPSGVSNRFSGSKSGNTASLTISGLQAEDEADYYCSSYTTSSTVFGGGTKLTVL
B5: 2-7 IgG (antibody, V domains shown)
VH: B4 VH
VL: B4 VL

How the values were obtained:
[1] = biological target: T1, His-tagged wildtype SARS-CoV-2 RBD (BEI NR52309) (SARS-CoV-2, wildtype (Wuhan-Hu-1), UniProt P0DTC2); test: crystal structure
[2] = biological target: T1, His-tagged wildtype SARS-CoV-2 RBD (BEI …); test: BLI

Row | Binder | binding result [1] | binding result [2]
1 | B1 | binds | 
2 | B2 |  | binds
3 | B3 |  | binds
4 | B4 |  | binds
5 | B5 |  | binds
